Data: patent US20260167710A1 (GlaxoSmithKline, published 2026)

How the values were obtained:
human IL-33 [1] = biological target: T1, human IL-33 (human, Biotinylated in Example 2; the site is not stated.); assay: cell-based or functional assay
T1 chain: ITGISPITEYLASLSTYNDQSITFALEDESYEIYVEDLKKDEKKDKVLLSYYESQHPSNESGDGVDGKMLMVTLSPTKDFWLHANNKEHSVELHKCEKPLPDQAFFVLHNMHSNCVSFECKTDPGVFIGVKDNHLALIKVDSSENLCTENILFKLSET

[2] = biological target: T2, cynomolgus recombinant neonatal receptor (FcRn) (cynomolgus monkey, UniProt Q8SPV9 24-297; Q8SPW0 21-119); assay: SPR (ProteOn XPR36), antibody captured by protein L, FcRn as analyte, equilibrium fit, pH 6.0, 25 C
T2 construct: extracellular domain; beta-2-microglobulin is not mentioned; also called cyno FcRn; cynomolgus monkey FcRn
T2 sequence (Q8SPV9 24-297 limits assumed, chain 1 of 2): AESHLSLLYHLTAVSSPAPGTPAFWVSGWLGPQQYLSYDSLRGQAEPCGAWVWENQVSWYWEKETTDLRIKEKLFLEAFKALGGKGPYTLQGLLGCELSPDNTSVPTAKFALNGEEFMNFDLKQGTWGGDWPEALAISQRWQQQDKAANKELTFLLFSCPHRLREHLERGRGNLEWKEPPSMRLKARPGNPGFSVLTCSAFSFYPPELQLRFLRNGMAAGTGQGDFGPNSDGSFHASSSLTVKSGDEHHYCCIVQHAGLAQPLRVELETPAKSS
T2 sequence (Q8SPW0 21-119 limits assumed, chain 2 of 2): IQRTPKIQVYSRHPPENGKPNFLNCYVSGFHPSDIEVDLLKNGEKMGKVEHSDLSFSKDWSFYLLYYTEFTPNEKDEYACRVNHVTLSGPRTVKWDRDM

[3] = biological target: T3, human recombinant neonatal receptor (FcRn) (human, UniProt P55899 24-297; P61769 21-119); assay: as above
T3 construct: also called human FcRn; human recombinant soluble FcRn

human IL-33 [4] = biological target: T1, human IL-33; assay: cell-based or functional assay
human IL-33 [5] = biological target: T1, human IL-33; assay: cell-based or functional assay
[6] = biological target: T4, human complement component C1q (human, UniProt P02745 23-245; P02746 28-253; P02747 29-245); assay: SPR (ProteOn XPR36), antibody immobilised by amine coupling, C1q as analyte, equilibrium fit, 25 C
T4 construct: also called human recombinant soluble complement C1q; Sigma #C1740-5 mg
T4 sequence (P02745 23-245 limits assumed, chain 1 of 3): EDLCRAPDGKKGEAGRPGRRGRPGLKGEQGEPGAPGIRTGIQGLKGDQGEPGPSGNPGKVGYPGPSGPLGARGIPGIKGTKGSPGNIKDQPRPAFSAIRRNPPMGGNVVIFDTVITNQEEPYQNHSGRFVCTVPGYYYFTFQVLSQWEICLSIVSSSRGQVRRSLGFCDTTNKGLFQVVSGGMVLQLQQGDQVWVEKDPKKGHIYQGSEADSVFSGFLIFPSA
T4 sequence (P02746 28-253 limits assumed, chain 2 of 3): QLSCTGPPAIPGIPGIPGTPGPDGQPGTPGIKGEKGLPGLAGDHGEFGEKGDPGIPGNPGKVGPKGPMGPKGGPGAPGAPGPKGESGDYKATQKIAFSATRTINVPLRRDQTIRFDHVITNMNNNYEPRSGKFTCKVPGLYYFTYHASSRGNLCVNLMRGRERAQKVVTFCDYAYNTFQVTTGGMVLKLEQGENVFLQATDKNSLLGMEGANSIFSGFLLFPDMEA
T4 sequence (P02747 29-245 limits assumed, chain 3 of 3): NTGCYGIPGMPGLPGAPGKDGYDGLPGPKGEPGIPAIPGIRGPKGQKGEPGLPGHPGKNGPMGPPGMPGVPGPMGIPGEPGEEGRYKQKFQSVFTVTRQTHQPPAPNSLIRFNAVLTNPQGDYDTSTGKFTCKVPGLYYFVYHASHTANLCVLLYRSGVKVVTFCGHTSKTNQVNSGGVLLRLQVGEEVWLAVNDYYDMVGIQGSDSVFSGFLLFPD

spIL-33 = assay: cell-based or functional assay
IL-33 109-270 = biological target: T5, IL-33 109-270 (UniProt O95760 109-270); assay: cell-based or functional assay
T5 sequence (looked up): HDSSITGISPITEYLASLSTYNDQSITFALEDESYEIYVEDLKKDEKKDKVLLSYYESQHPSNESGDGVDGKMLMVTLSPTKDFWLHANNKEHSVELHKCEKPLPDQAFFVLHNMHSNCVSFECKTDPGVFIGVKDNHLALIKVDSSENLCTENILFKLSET

human IL-33 [7] = biological target: T1, human IL-33; assay: MSD-SET solution equilibrium titration, 25 C

- IC50, inhibition of IL-33 (5.0 nM) induced β-hexosaminidase release from basophils, pre-complexed, Mean (human IL-33 [1]): 2.03 nM
- IC50, inhibition of IL-33 (5.0 nM) induced β-hexosaminidase release from basophils, pre-complexed, donor #33235 (human IL-33 [1]): 1.39 nM
- IC50, inhibition of IL-33 (5.0 nM) induced β-hexosaminidase release from basophils, pre-complexed, donor #90290 (human IL-33 [1]): 4.53 nM
- IC50, inhibition of IL-33 (5.0 nM) induced β-hexosaminidase release from basophils, pre-complexed, donor #90356 (human IL-33 [1]): 1.23 nM
- IC50, inhibition of IL-33 (5.0 nM) induced β-hexosaminidase release from basophils, pre-complexed, donor #90541 (human IL-33 [1]): 0.97 nM
- pIC50, inhibition of IL-33 (5.0 nM) induced β-hexosaminidase release from basophils, pre-complexed, Mean (human IL-33 [1]): 8.78
- pIC50, inhibition of IL-33 (5.0 nM) induced β-hexosaminidase release from basophils, pre-complexed, donor #33235 (human IL-33 [1]): 8.86
- pIC50, inhibition of IL-33 (5.0 nM) induced β-hexosaminidase release from basophils, pre-complexed, donor #90290 (human IL-33 [1]): 8.34
- pIC50, inhibition of IL-33 (5.0 nM) induced β-hexosaminidase release from basophils, pre-complexed, donor #90356 (human IL-33 [1]): 8.91
- pIC50, inhibition of IL-33 (5.0 nM) induced β-hexosaminidase release from basophils, pre-complexed, donor #90541 (human IL-33 [1]): 9.01
- Kd [2]: 24.7 nM
- Kd [3]: 25 nM
- IC50, inhibition of IL-33 (125 pM) induced IFN-γ secretion from CD4+ T cells, pre-complexed, Mean (human IL-33 [4]): 675 pM
- IC50, inhibition of IL-33 (125 pM) induced IFN-γ secretion from CD4+ T cells, pre-complexed, N = 1 (human IL-33 [4]): 1060 pM
- IC50, inhibition of IL-33 (125 pM) induced IFN-γ secretion from CD4+ T cells, pre-complexed, N = 2 (human IL-33 [4]): 936 pM
- IC50, inhibition of IL-33 (125 pM) induced IFN-γ secretion from CD4+ T cells, pre-complexed, N = 3 (human IL-33 [4]): 282 pM
- IC50, inhibition of IL-33 (125 pM) induced IFN-γ secretion from CD4+ T cells, pre-complexed, N = 4 (human IL-33 [4]): 591 pM
- IC50, inhibition of IL-33 (125 pM) induced IFN-γ secretion from CD4+ T cells, pre-complexed, N = 5 (human IL-33 [4]): 790 pM
- IC50, inhibition of IL-33 (125 pM) induced IFN-γ secretion from CD4+ T cells, pre-complexed, N = 6 (human IL-33 [4]): 497 pM
- IC50, inhibition of IL-33 (125 pM) induced IFN-γ secretion from CD4+ T cells, pre-complexed, N = 7 (human IL-33 [4]): 574 pM
- pIC50, inhibition of IL-33 (125 pM) induced IFN-γ secretion from CD4+ T cells, pre-complexed, Mean (human IL-33 [4]): 9.2
- pIC50, inhibition of IL-33 (125 pM) induced IFN-γ secretion from CD4+ T cells, pre-complexed, N = 1 (human IL-33 [4]): 8.97
- pIC50, inhibition of IL-33 (125 pM) induced IFN-γ secretion from CD4+ T cells, pre-complexed, N = 2 (human IL-33 [4]): 9.02
- pIC50, inhibition of IL-33 (125 pM) induced IFN-γ secretion from CD4+ T cells, pre-complexed, N = 3 (human IL-33 [4]): 9.54
- pIC50, inhibition of IL-33 (125 pM) induced IFN-γ secretion from CD4+ T cells, pre-complexed, N = 4 (human IL-33 [4]): 9.22
- pIC50, inhibition of IL-33 (125 pM) induced IFN-γ secretion from CD4+ T cells, pre-complexed, N = 5 (human IL-33 [4]): 9.1
- pIC50, inhibition of IL-33 (125 pM) induced IFN-γ secretion from CD4+ T cells, pre-complexed, N = 6 (human IL-33 [4]): 9.3
- pIC50, inhibition of IL-33 (125 pM) induced IFN-γ secretion from CD4+ T cells, pre-complexed, N = 7 (human IL-33 [4]): 9.24
- IC50, inhibition of 30 ng/mL IL-33/IL-12 induced IFN-γ secretion from whole blood, pre-complexed, Mean (human IL-33 [5]): 3.24 nM
- IC50, inhibition of 30 ng/mL IL-33/IL-12 induced IFN-γ secretion from whole blood, pre-complexed, donor #91232 (human IL-33 [5]): 1.47 nM
- IC50, inhibition of 30 ng/mL IL-33/IL-12 induced IFN-γ secretion from whole blood, pre-complexed, donor #91845 (human IL-33 [5]): 3.88 nM
- IC50, inhibition of 30 ng/mL IL-33/IL-12 induced IFN-γ secretion from whole blood, pre-complexed, donor #92023 (human IL-33 [5]): 2.48 nM
- IC50, inhibition of 30 ng/mL IL-33/IL-12 induced IFN-γ secretion from whole blood, pre-complexed, donor #92187 (human IL-33 [5]): 4.92 nM
- IC50, inhibition of 30 ng/mL IL-33/IL-12 induced IFN-γ secretion from whole blood, pre-complexed, donor #92257 (human IL-33 [5]): 1.75 nM
- IC50, inhibition of 30 ng/mL IL-33/IL-12 induced IFN-γ secretion from whole blood, pre-complexed, donor #92258 (human IL-33 [5]): 4.93 nM
- pIC50, inhibition of 30 ng/mL IL-33/IL-12 induced IFN-γ secretion from whole blood, pre-complexed, Mean (human IL-33 [5]): 8.53
- pIC50, inhibition of 30 ng/mL IL-33/IL-12 induced IFN-γ secretion from whole blood, pre-complexed, donor #91232 (human IL-33 [5]): 8.83
- pIC50, inhibition of 30 ng/mL IL-33/IL-12 induced IFN-γ secretion from whole blood, pre-complexed, donor #91845 (human IL-33 [5]): 8.41
- pIC50, inhibition of 30 ng/mL IL-33/IL-12 induced IFN-γ secretion from whole blood, pre-complexed, donor #92023 (human IL-33 [5]): 8.6
- pIC50, inhibition of 30 ng/mL IL-33/IL-12 induced IFN-γ secretion from whole blood, pre-complexed, donor #92187 (human IL-33 [5]): 8.3
- pIC50, inhibition of 30 ng/mL IL-33/IL-12 induced IFN-γ secretion from whole blood, pre-complexed, donor #92257 (human IL-33 [5]): 8.75
- pIC50, inhibition of 30 ng/mL IL-33/IL-12 induced IFN-γ secretion from whole blood, pre-complexed, donor #92258 (human IL-33 [5]): 8.3
- Kd [6]: 213 nM
- IC50, inhibition of 25 pM IL-33 isoform in HEK-Blue reporter assay (spIL-33): 90.3 pM
- IC50, inhibition of 25 pM IL-33 isoform in HEK-Blue reporter assay (IL-33 109-270): 254 pM
- Kd (human IL-33 [7]): 0.0033 nM
B1: 22A06-458 (antibody, human IgG1, kappa)
heavy: QVQLVQSGAEVKKPGASVKVSCKASGYTFISYGMHWVRQAPGQGLEWMGEINPHGGSTSYAQKFKGRVTMTRDTSTSTVYMELSSLRSEDTAVYYCARPSAAYSHYLGIDLWGRGTLVTVSSASTKGPSVFPLAPSSKSTSGGTAALGCLVKDYFPEPVTVSWNSGALTSGVHTFPAVLQSSGLYSLSSVVTVPSSSLGTQTYICNVNHKPSNTKVDKKVEPKSCDKTHTCPPCPAPELLGGPSVFLFPPKPKDTLYITREPEVTCVVVDVSHEDPEVKFNWYVDGVEVHNAKTKPREEQYNSTYRVVSVLTVLHQDWLNGKEYKCKVSNKALPAPIEKTISKAKGQPREPQVYTLPPSRDELTKNQVSLTCLVKGFYPSDIAVEWESNGQPENNYKTTPPVLDSDGSFFLYSKLTVDKSRWQQGNVFSCSVMHEALHNHYTQKSLSLSPGK
light: DIQMTQSPSSVSASVGDRVTITCRASQGISSWLAWYQQKPGKAPKLLIYAASRLQSGVPSRFSGSGSGTDFTLTISSLQPEDFATYYCQQANVFPLTFGGGTKVEIKRTVAAPSVFIFPPSDEQLKSGTASVVCLLNNFYPREAKVQWKVDNALQSGNSQESVTEQDSKDSTYSLSSTLTLSKADYEKHKVYACEVTHQGLSSPVTKSFNRGEC
